The target in the experiment is Bcl-xL, Q07817. Put plainly: peptide SPOT array, c-Myc-tagged receptor at 1 uM or 100 nM, anti-c-Myc-Cy3.

These results are taken from paper PMC4072508, “Genome-Wide Prediction and Validation of Peptides That Bind Human Prosurvival Bcl-2 Proteins” (PLoS Computational Biology, 2014).

Chain of Bcl-xL, Q07817 (Q07817 1-209): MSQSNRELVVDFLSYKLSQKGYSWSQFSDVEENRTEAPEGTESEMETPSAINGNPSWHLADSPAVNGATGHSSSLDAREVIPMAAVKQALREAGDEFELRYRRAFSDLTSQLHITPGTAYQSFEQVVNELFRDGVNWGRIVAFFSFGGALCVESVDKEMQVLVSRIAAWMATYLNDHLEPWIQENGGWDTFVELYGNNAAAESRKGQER

Regarding PFDCRDYAVVLRKYLDKIYNISMKHP [FOLH1B], the SPOT signal as a fraction of Bim BH3's signal on the same receptor and array is 0.51.

AIKPVSFIRDDKKIARHFRFGNQEDA [USP36]: the SPOT signal as a fraction of Bim BH3's signal on the same receptor and array was determined as 1.34.

Turning to GRQVEDAGRVLEGISKSISYDLDGEE [FIBIN], the SPOT signal as a fraction of Bim BH3's signal on the same receptor and array stood at 0.02.

For VFERCELARTLKRLLMDGYRGISLAN [LYZ], the SPOT signal as a fraction of Bim BH3's signal on the same receptor and array stood at 0.42.

In turn, SCMATVIHNPLKALLDQFYKEAIEHC [DPF3] came in with an SPOT signal as a fraction of Bim BH3's signal on the same receptor and array of 0.03.

The molecule WRERPDVGRYLRELSGSGLERLRREP [COG8] yielded an SPOT signal as a fraction of Bim BH3's signal on the same receptor and array of 0.09.

The molecule LASIGGLAARLQLWAFKLDYDSMERE [FHOD1] had an SPOT signal as a fraction of Bim BH3's signal on the same receptor and array of 0.03.

In turn, AHKARALARLLRQTLLAAFSDFKRLQ [FAM43B] showed an SPOT signal as a fraction of Bim BH3's signal on the same receptor and array of 0.59.

For the molecule YEQAKNISQDLEKQAARVHEEAKRAG [LAMC1], the SPOT signal as a fraction of Bim BH3's signal on the same receptor and array is 0.03.

As for EVRSSQFARKLWRSSRRISQVSSGET [NBEAL2], the SPOT signal as a fraction of Bim BH3's signal on the same receptor and array worked out at 0.86.

The molecule SRELEEISERLEEAGGATSVQIEMNK [MYH6] showed an SPOT signal as a fraction of Bim BH3's signal on the same receptor and array of 0.02.

On to EGTKIVLGKQDIESADEVRRKSLVLK [TAF1], for which the SPOT signal as a fraction of Bim BH3's signal on the same receptor and array was 0.05.

In turn, QGDVQMAVSVLIVLGERVRKDIDEQT [WDR24] yielded an SPOT signal as a fraction of Bim BH3's signal on the same receptor and array of 0.02.

IKKSVTKGEMLKIVLKRFREHFPEIL [MAGEB2] showed an SPOT signal as a fraction of Bim BH3's signal on the same receptor and array of 0.2.

With DNHKKKTVKMLEYLLKDVLHGVFNYL [CASP5], the SPOT signal as a fraction of Bim BH3's signal on the same receptor and array worked out at 0.24.

For SSLSDGLPVHDANIADELTQKKKMFK [AGBL2], the SPOT signal as a fraction of Bim BH3's signal on the same receptor and array amounted to 0.03.

DISLSNSGFKDVNFGCDYHQYRDKFS [PION] displayed an SPOT signal as a fraction of Bim BH3's signal on the same receptor and array of 0.03.

Take SQDVERFCRQLSSMASKLIISPFTLV [ABCD4]: the SPOT signal as a fraction of Bim BH3's signal on the same receptor and array was 0.05.

On to TNISWRACDHLRCILCDFLVVSYDDY [C8orf37], for which the SPOT signal as a fraction of Bim BH3's signal on the same receptor and array was found to be 0.03.

On to FDNAMLRARRLYQLAYDTYQEFEEAY [GH2], for which the SPOT signal as a fraction of Bim BH3's signal on the same receptor and array is 0.04.

With TGGLPELASRLTRISAVLLEGMNKET [TCP11L2], the SPOT signal as a fraction of Bim BH3's signal on the same receptor and array came to 0.03.

In turn, GEGAEEAAKDLADIAAFFRSGFRKND [TRIO] yielded an SPOT signal as a fraction of Bim BH3's signal on the same receptor and array of 0.03.

RQKIQRTARKLFGLSVRCRHNPNHQL [DBC1] displayed an SPOT signal as a fraction of Bim BH3's signal on the same receptor and array of 0.69.

In turn, NEEGQQFALKLHRLLRTSFRNLKNKR came in with an SPOT signal as a fraction of Bim BH3's signal on the same receptor and array of 0.69.

VYILRKAARRDAQVSRAAGVRVGLLS [CACNA1G] showed an SPOT signal as a fraction of Bim BH3's signal on the same receptor and array of 0.94.

TEEMKHNVEKLNELSKNLNRAFAEFE [DNAH3] had an SPOT signal as a fraction of Bim BH3's signal on the same receptor and array of 0.02.

The molecule NEEGQQFALKLHRLGRTSFRNLKNKR had an SPOT signal as a fraction of Bim BH3's signal on the same receptor and array of 0.95.

GAQHSTMTSTLRRLLEDIFKGVVTKG [CCDC138] yielded an SPOT signal as a fraction of Bim BH3's signal on the same receptor and array of 0.19.

Turning to ENGHTDVADVLLQAGADLEHESEGGR [ANKRD17], the SPOT signal as a fraction of Bim BH3's signal on the same receptor and array was 0.02.

Molecule LDDVKILANGLLQLGHGLKDFVHKTK [ANGPTL3] returned an SPOT signal as a fraction of Bim BH3's signal on the same receptor and array of 0.04.

As to KNGHREVIRQLLRAGIEINRQTKTGT [CASKIN2], the SPOT signal as a fraction of Bim BH3's signal on the same receptor and array was 0.23.

The molecule ATKRETAATFDKKVAKEFGFQNNGFS [NPLOC4] showed an SPOT signal as a fraction of Bim BH3's signal on the same receptor and array of 0.24.

In the case of GENIRQAASSLQQASLKLFEMAYKKM [HSPA9], the SPOT signal as a fraction of Bim BH3's signal on the same receptor and array was found to be 0.09.

Molecule RYPILENPEILRKTLDDFLNRIALTD [CCNH] yielded an SPOT signal as a fraction of Bim BH3's signal on the same receptor and array of 0.02.

Take DIFMNNVIVRLSQISEDVIRLFKKSK [SRGAP3]: the SPOT signal as a fraction of Bim BH3's signal on the same receptor and array is 0.18.

Regarding RGRTRGWVQTLARMSRRTRGPVERAA [C6orf223], the SPOT signal as a fraction of Bim BH3's signal on the same receptor and array is 0.75.

Take EEIIHKLAMQLRHILDNIDHRMVRED [PXT1]: the SPOT signal as a fraction of Bim BH3's signal on the same receptor and array came out at 0.02.
